In patent US20120124686:

Target: T1, phiC31 integrase (phiC31o, mammalian codon-optimized) (Streptomyces phage phiC31) (UniProt Q9T221)
T1 sequence: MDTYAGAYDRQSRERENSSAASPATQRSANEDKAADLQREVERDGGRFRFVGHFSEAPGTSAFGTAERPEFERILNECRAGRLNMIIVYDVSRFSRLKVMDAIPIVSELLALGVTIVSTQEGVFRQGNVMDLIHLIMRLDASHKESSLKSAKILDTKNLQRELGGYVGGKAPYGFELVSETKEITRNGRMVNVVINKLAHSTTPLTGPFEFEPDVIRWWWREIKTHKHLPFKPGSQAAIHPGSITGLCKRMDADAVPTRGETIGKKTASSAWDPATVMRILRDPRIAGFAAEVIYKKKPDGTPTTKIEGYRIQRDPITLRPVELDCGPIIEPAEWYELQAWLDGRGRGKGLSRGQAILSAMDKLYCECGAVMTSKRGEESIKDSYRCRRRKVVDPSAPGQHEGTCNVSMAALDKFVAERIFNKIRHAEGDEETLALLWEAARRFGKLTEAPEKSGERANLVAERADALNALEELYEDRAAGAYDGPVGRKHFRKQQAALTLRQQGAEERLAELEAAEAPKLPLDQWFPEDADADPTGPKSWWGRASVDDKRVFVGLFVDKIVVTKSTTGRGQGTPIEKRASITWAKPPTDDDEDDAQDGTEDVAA
Experiment: cell_activity

Substance	activity (% of F0 with site-specific integration) (attB plasmid pattB-pCA-GFP into H11P3NVphi, 10/64, 0/32 without integrase mRNA)	activity (% of F0 with site-specific integration) (H11P(NVphi), mixed background, pooled 8/102, partner attB, mouse zygote injection)
full-length phiC31 attB (pTA-attB)	15.6	–
full-length phiC31 attP (pTA-attP)	–	7.8
